Test results reported in US20210071139A1 (published 2021).

Target: histone H4 (UniProt P62806 2-103)
Assay: IP with anti-TOX from EL4 lysate, Western blot (FIG. 60L)

B1: TOX (other)
chain: MDVRFYPPPAQPAAAPAAPCLGPSPCLDPYYCNKFDGENMYMSMTEPSQDYVPASQSYPGPSLESEDFNIPPITPPSLPDHSLVHLNEVESGYHSLCHPMNHNGLLPFHPQTMDLPEITVSNMLGQDGALLSNSISVMQEIGNAEGAQYSSHPQMAAMRPRGQPTDIRQQASMMQPGQLTTINQSQLSAQLGLNMGGTNVAHNSPSPPGSKSATPSPSSSVHEDECEDASKINGGEKRPASDMGKKPKTPKKKKKKDPNEPQKPVSAYALFFRDTQAAIKGQNPNATFGEVSKIVASMWDGLGEEQKQVYKKKTEAAKKEYLKQLAAYRASLVSKSYTDPVDVKTSQPPQLVNSKPSVFHGPSQAHSALYLSSHYHQQPGMTPQLTAMHPSLPRNIAPKPNNQMPVTVSIANMAVSPPPPLQISPPLHQHLSMQQHQSLAMQQPLGSQLPMQVQTALHSPTMQQGFTLQPDYQTIINPTSTAAQVVTQAMEYVRSGCRNPPPQPVDWSTDYCSSGGMQRDKALYLT
notes: Bait of the immunoprecipitations (anti-TOX ab155768, Abcam); also called TOX protein
- binding result: binds
